40 sequences from the supplement of paper PMC9170038 can be followed below.

In series [1] the test system is MS2 coat protein. The series can be described thus: apparent KD of MS2 coat protein, switch ON state; designed switch direction (-1 OFF switch, 1 ON switch): -1; higher = weaker reporter binding. Particulars: FMN input: 0 or 200 uM; Eterna round: R93 (includes R88 designs). The method in brief: (§1)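 Illumina sequencing clusters served as templates for on-chip transcription of the designed RNA switches. SNAP-549-labelled MS2 coat protein was then titrated in twofold steps from 0.7 or 1.5 nM to 3 µM, allowing 0.8–1.5 h per step at first and 10–20 min per step later. The buffer held 100 mM Tris-HCl pH 7.5, 80 mM KCl and 4 mM MgCl2, without or with constant ligand. Apparent KD is the median per design of normalised cluster binding-curve fits.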

Series [2] deals with MS2 coat protein. The series can be described thus: apparent KD of MS2 coat protein, switch OFF state (with FMN for OFF switches, without FMN for ON switches); designed switch direction (-1 OFF switch, 1 ON switch): -1; higher = weaker reporter binding. As to conditions: FMN input: 0 or 200 uM; Eterna round: R93 (includes R88 designs). The method in brief:
as §1

Turning to “UAAAGACAUGAGGAUCACCCAUGUGAGGAUAUCGGAGAUGACGGAACAUCAAGUUCGGCGAGAAGGCGCAGGAA [JR_Exc001_Sub406]”, the figures for the “apparent KD of MS2 coat protein” value with MS2 coat protein [1] and in the series with MS2 coat protein [2] were 30.9 nM and 30.7 nM, respectively.
For the sequence “AGAAAACAUGAGGAUCACCCAUGUCAGGAUAUGAAAAAGAAAAGAAAAGAAAGAAGAAUCAGAAGGGACAAGAA [Senedj]”, the “apparent KD of MS2 coat protein” value worked out at 38.2 nM with MS2 coat protein [1] and 40.3 nM in the series on MS2 coat protein [2].
As to “UAAAACUUAGGAUAUACAUGAGGAUCACCCAUGUCAAGACAAGGAAGGUCCUAAGCCGGUAGAAGGAAGAAAAU [Bexeora]”, the “apparent KD of MS2 coat protein” value in the series with MS2 coat protein [1] came to 29.6 nM; in the series with MS2 coat protein [2], 25.4 nM.
Regarding “GUAGAGUGAGGAUAUGAUUAAAAGAAGGGAAAGAGACAGCAUCAGAAGGCACAUGAGGAUCACCCAUGUAUGAA [JR_Exc004_Sub1224]”, the “apparent KD of MS2 coat protein” value in the series on MS2 coat protein [1] was 26.9 nM; in the series on MS2 coat protein [2] it was 27.1 nM.
Take “AGCUAGUGAGGAUAUGCGAACAUGUCAAAAGACGUGAAGGGACAUGAGGAUCACCCAUGUAGAAGGCACUAGCA [JL 74% mod 3]”: the “apparent KD of MS2 coat protein” value was 26.4 nM in the series on MS2 coat protein [1] and 36.3 nM with MS2 coat protein [2].
Consider “AAGUCGUUAGGAUAUAUAUGGAUAUACAUUUAUGUAGAACUACAUGAGGAUCACCCAUGUAGAAGGAACGAAUA [AJ 56]”, for which the “apparent KD of MS2 coat protein” value with MS2 coat protein [1] amounted to 24.3 nM; in the series on MS2 coat protein [2] it was 27.9 nM.
For “UAAAGACAUGAGGAUCACCCAUGUGAGGAUAUUGGUGACUAUAAAAAAAAAUAGUCACCGAGAAGGCAUAGGAA [JR_Exc001_Sub302]”, in that order: 31 nM and 42.4 nM.
Take “AAAACUGGAGGAUAUACAUGAGGAUCACCCAUGUGUGGGUGGGCUGUGUCGGCGUCAGGUAGAAGGCCACAAAA [Gilly Gone Silly 33 - Jieux - Exclusion 3]”: the “apparent KD of MS2 coat protein” value stood at 201 nM with MS2 coat protein [1] and 108 nM with MS2 coat protein [2].
Consider “AGGAAACAUGAGGAUCACCCAUGUGAGGAUAUGAGAAAGAAAAGAAAAGAAAGAAGAAUCAGAAGGCACAAGAA [Raneb]”, for which the “apparent KD of MS2 coat protein” value came to 42.8 nM in the series with MS2 coat protein [1] and 46.6 nM in the series on MS2 coat protein [2].
In the same order, the values of “GCUGGGCAAGGAUAUACAUGAGGAUCACCCAUGUGAGAGAAAAAAGUGAGAAAGAAAAGUAGAAGGUGCUUAGG [salish99-ex3-119]” are 45.8 nM and 77.9 nM.
For “AGCUAGUCAGGAUAUACGAACAUGUCAGAAGACGUAAGGGAACAUGAGGAUCACCCAUGUAGAAGGGACUAGCA [Diamond 48]”, in that order: 33.1 nM and 75 nM.
For “AAGGGACAUGAGGAUCACCCAUGUGAGGAUAUGCUAUGGAAAUAAAAAAUAAAACAUAGCAGAAGGCAUAAAAA [Mat - Exclusion 1 - Eli mod - D38]”, in that order: 69.3 nM and 60.5 nM.
On to “AAAAAACAUGAGGAUCACCCAUGUGAGGAUAUGCAAAACUUAUAUAAAAAGGGAAAAAGUAGAAGGCACAAAAA [LROPPY Exclusion 1 - v09_water mod]”, for which the results for the “apparent KD of MS2 coat protein” value in the series on MS2 coat protein [1] and with MS2 coat protein [2] were 30.4 nM and 39.2 nM, respectively.
For “AAGUUGCUAGGAUAUACUUGGGCAACAAAUGAACCAAUAUAACAUGAGGAUCACCCAUGUAGAAGGAGCAGAAA [JR_Exc002_Sub301]”, in that order: 35.2 nM and 63.5 nM.
In the same order, the values of “AAAAAGUGAGGAUAUACAUGAGGAUCACCCAUGUGAAAGUCGAAAAAAAAGACAAGAAGUAGAAGGCACAAAAA [Fiskers Exclusion 3 D2 variant]” are 24.3 nM and 29.3 nM.
For “CAAGGUGGAGGAUAUACAUGAGGAUCACCCAUGUAAGGACAAUAAAUAAGAUGAAGAAGUAGAAGGCCACUCAA [e3-3]”, in that order: 41.5 nM and 42.1 nM.
Turning to “AAAAAGUGAGGAUAUGGUAAAAAAAAAAAAAAAAAAAACCUCCAGAAGGCACAUGAGGAUCACCCAUGUCAAAA [Jolly's Folly 3 - Jieux - Exclusion 4]”, the “apparent KD of MS2 coat protein” value with MS2 coat protein [1] turned out to be 44.7 nM; with MS2 coat protein [2], 19 nM.
In the same order, the values of “AGCUAGUCAGGAUAUACGAACAUGUCAAAAGACGUGAAGAAACAUGAGGAUCACCCAUGUAGAAGGGACUAGCA [Mat - Exclusion 2 - JL-Eli mod - D50]” are 16.7 nM and 12.4 nM.
For “AAGAAUGGAGGAUAUACAUAAAAGAAAGAAAAGAAAAGAAAACAUGAGGAUCACCCAUGUAGAAGGCCAUAGAA [EteRNA is fun!]”, in that order: 24.6 nM and 15.3 nM.
In the same order, the values of “GCUUGUCUAGGAUAUACAUGAGGAUCACCCAUGUGAGAGAAAAAAGUGAGAAAGAAAAGUAGAAGGAGGUGAGG [salish99-ex3-81]” are 28.4 nM and 29.7 nM.
Take “AAGAGUAGAGGAUAUACGAAAAAAGAGUCGAAAGACUCGGGACAUGAGGAUCACCCAUGUAGAAGGCUACUCAA [Hyphema Seclusion Mod 62% 5]”: the figures for the “apparent KD of MS2 coat protein” value in the series with MS2 coat protein [1] and in the series with MS2 coat protein [2] were 22 nM and 110 nM, respectively.
On to “AAAAAGUCAGGAUAUACAGAUAAAAAAACGAAAAAAAAUCUGUAGAAGGGACAUGAGGAUCACCCAUGUAAAAA [Ex 4 May 1]”, for which the “apparent KD of MS2 coat protein” value with MS2 coat protein [1] was determined as 61.8 nM; in the series with MS2 coat protein [2], 40.1 nM.
“AAGAACUGAGGAUAUACAUGAGGAUCACCCAUGUAAAAGAAAGAAAGGGAAAAGAAAAGUAGAAGGCAGAAGAA [Menmaatre-setpenptah Ramesses XI]”: the “apparent KD of MS2 coat protein” value stood at 51.1 nM in the series with MS2 coat protein [1] and 59.4 nM in the series with MS2 coat protein [2].
Regarding “AAAAACUGAGGAUAUACAUGAGGAUCACCCAUGUAAAAAAAAAAAAAGGGAAAAAAAAGUAGAAGGCAGAAAAA [Nebiriau II]”, the “apparent KD of MS2 coat protein” value was 26.1 nM with MS2 coat protein [1] and 41 nM in the series on MS2 coat protein [2].
For “GAAAAUCGAGGAUAUACAUGAGGAUCACCCAUGUCAAAAAAUGACUACACAAAAGAAAGUAGAAGGCGAUAAAG [Mat - Exclusion 3 - Mayanna mod - D130]”, the “apparent KD of MS2 coat protein” value in the series with MS2 coat protein [1] was determined as 28.8 nM; in the series with MS2 coat protein [2] it was 31.2 nM.
In the same order, the values of “AGAAACGUAGGAUAUACAUGAGGAUCACCCAUGUAAAGAAAGAAGGGAGAAAGAAGAAGUAGAAGGACGAAGAA [JR_Exc003_Sub003]” are 19.2 nM and 59.9 nM.
In the same order, the values of “AGCUAGUCAGGAUAUACGAACAAGACAAAAGACGUGAAGGGACAUGAGGAUCACCCAUGUAGAAGGGACUAGCA [74%, Web mod - With 2 less U's]” are 26.2 nM and 71.3 nM.
For “AAAGGACGAGGAUAUACAUGAGGAUCACCCAUGUAAAAAGCAUAAUAAAAGAACUUAUGUAGAAGGCGUCCAAA [69%, Moding Meechl, 5]”, in that order: 41 nM and 189 nM.
In the case of “GGAUGCCUAGGAUAUACAUGAGGAUCACCCAUGUGAGAGAAAAAAGUGAGAAAGAAAAGUAGAAGGAGGUGUCG [salish99-ex3-91]”, the “apparent KD of MS2 coat protein” value in the series with MS2 coat protein [1] is 38 nM; in the series with MS2 coat protein [2], 92.4 nM.
Turning to “AACUGACAUGAGGAUCACCCAUGUCAGGAUAUGAUAUGUAAAAAAAUAAAAAUACUUAUCAGAAGGGACAUGGG [Design 39: Sub-opt A]”, the “apparent KD of MS2 coat protein” value in the series on MS2 coat protein [1] worked out at 18.2 nM; in the series with MS2 coat protein [2], 20 nM.
Take “GAAAAGUGAGGAUAUUCGGAUAGGAAAACGAAAACCUAUCCGAAGAAGGCACAUGAGGAUCACCCAUGUGGAAA [Mat - Exaclusion 4 - Eli mod - D45]”: the results for the “apparent KD of MS2 coat protein” value in the series with MS2 coat protein [1] and in the series on MS2 coat protein [2] were 30.1 nM and 31.5 nM, respectively.
In the same order, the values of “AAAAAACAUGAGGAUCACCCAUGUCAGGAUAUACAAAAAUAAAUAAAAAUAAAAUAAAGUAGAAGGGACAAAAA [May 9]” are 28.9 nM and 36.9 nM.
Turning to “AAAGAUGGAGGAUAUACAUGAGGAUCACCCAUGUAGAAAAAAAAUUGGGAAAAAGAAAGUAGAAGGCCAAAAAA [Ex 3 May 43]”, the “apparent KD of MS2 coat protein” value in the series with MS2 coat protein [1] came to 38.7 nM; in the series on MS2 coat protein [2], 72.9 nM.
Consider “GAAAGGGCAGGAUAUGCGGAGAGAGAGAGAGAGAGAGAGAGACAUGAGGAUCACCCAUGUAGAAGGGCCGAAAG [salish99-ex2-08]”, for which the “apparent KD of MS2 coat protein” value came to 36.9 nM in the series on MS2 coat protein [1] and 38.6 nM with MS2 coat protein [2].
On to “AACUAGUCAGGAUAUACGAACAUGUCAAAAGACAUGAAGGGACAUGAGGAUCACCCAUGUAGAAGGGACUAGCA [74%, Web mod - With 2 less G's]”, for which the entries for the “apparent KD of MS2 coat protein” value with MS2 coat protein [1] and with MS2 coat protein [2] were 44 nM and 148 nM, respectively.
As to “GAAAAGAGAGGAUAUACUUUGGGAAAAGAAAAGAUGAUGUUACAUGAGGAUCACCCAUGUAGAAGGCUCAAAAA [Mat - Exclusion 2 - Mod - D156]”, the “apparent KD of MS2 coat protein” value in the series with MS2 coat protein [1] amounted to 27.1 nM; with MS2 coat protein [2] it was 44.6 nM.
In the same order, the values of “AAGAAGGAAGGAUAUACAUGAGGAUCACCCAUGUAAAAGAAAGAGGGAAAAGAGAAAAGUAGAAGGUCCAAGAA [Ptolemy V Epiphanes]” are 26.5 nM and 30.3 nM.
Consider “GGUUGACAAGGAUAUACAUGAGGAUCACCCAUGUGAGAGAAAAAAGUGAGAAAGAAAAGUAGAAGGUGUUGACG [salish99-ex3-62]”, for which the “apparent KD of MS2 coat protein” value worked out at 31 nM with MS2 coat protein [1] and 85 nM in the series with MS2 coat protein [2].
In the same order, the values of “AAGAACGGAGGAUAUACAUGAGGAUCACCCAUGUAAAAGAAAGAAGGGAAAGAGAAAAGUAGAAGGCCGAAGAA [Usermaatre-setepenamun Pedubast]” are 28.1 nM and 50.8 nM.
For “CUCAUGUCAGGAUAUAGCCACAUGAGGAUCACCCAUGUGGACUAGAAGGGACAUGAGGAUCACCCAUGUAUGAA”, in that order: 11 nM and 11.3 nM.
